Reference: paper PMC3376891 (Cell, 2012)

How the values were obtained:
[1] = Far-UV CD spectroscopy of peptides; assay type: physicochemical; conditions: aqueous solution / buffer (Figure S2D)
[2] = salt-free buffer; ref Bowie and Sauer, 1989; cited from earlier work

Substance | Secondary structure by far-UV CD [1] | Unfolding behavior of Arc upon dilution [2]
neuropeptide Y [Pep1] | α helix | 
Arc: 55 aa Arc repressor, a client protein of both chaperones (MKGMSKMPQFNLRWPREVLDLVRKVAEENGRSVNSEIYQRVMESFKKEGRIGA; UniProt P03050 1-53, looked up) |  | rapidly dissociate and slowly unfold upon dilution into salt-free buffer without forming aggregates
